Reference: patent US20240010735A1 (EISAI R AND D MANAGEMENT, published 2024)

Tests used:
[1] = target: T1, mouse EphB4 extracellular region-Fc-His protein (mouse; human, UniProt P54761 16-539); test: ELISA: Fc-His proteins (1 nM) captured on anti-6-His antibody, antibody B 10 µg/mL with human IgG 100 µg/mL, HRP anti-human kappa light chain antibody, OD450 as % of mouse EphA4-Fc-His
T1 construct: extracellular domain; not shown: Fc region of human IgG1; histidine tag
T1 sequence (looked up): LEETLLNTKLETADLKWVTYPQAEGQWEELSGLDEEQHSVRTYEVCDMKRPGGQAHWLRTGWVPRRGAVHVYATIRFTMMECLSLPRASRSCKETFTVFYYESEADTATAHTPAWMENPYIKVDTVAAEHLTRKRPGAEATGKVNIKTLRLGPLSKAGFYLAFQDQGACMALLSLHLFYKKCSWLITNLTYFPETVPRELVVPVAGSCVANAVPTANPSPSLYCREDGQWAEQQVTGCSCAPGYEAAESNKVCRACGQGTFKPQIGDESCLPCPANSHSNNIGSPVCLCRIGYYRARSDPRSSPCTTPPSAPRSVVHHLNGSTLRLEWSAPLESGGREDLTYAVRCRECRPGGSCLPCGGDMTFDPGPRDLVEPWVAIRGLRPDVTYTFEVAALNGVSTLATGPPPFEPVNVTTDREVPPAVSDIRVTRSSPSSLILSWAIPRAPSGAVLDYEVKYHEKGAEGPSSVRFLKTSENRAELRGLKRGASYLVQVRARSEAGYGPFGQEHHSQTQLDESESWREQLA
Protocol: Rabbit anti-6-His antibodies (Bethyl Laboratories) were coated onto the wells of a 96-well plate (Nunc). After incubating at 4° C. overnight, the wells were blocked at room temperature for 1 hour by 1% Block Ace (DS Pharma Biomedical). After washing 3 times with 0.05% Tween 20/PBS (Thermo […]), each Eph receptor of mouse extracellular region-Fc-His protein (final concentration 1 nM) was seeded into each well, and incubated at room temperature for 1 hour. After washing 3 times, human IgG solution (100 μg/mL, Sigma) and antibody B (10 μg/mL) were supplemented to the wells, and incubated at room temperature for 1 hour. Horseradish peroxidase-labeled goat anti-human Kappa Light Chain antibody (IBL) was added, and incubated at room temperature for 1 hour. After washing 3 times, TMBZ (3,3′,5,5′-tetramethylbenzidine, Sigma) solution was added to the wells, and upon confirmation of modest coloring, an equal amount of quenching solution (1 N H₂SO₄, Wako Pure Chemicals) was added to the wells, and absorbance at 450 nm was read by a microplate reader (PerkinElmer).

[2] = target: T2, mouse EphA4 extracellular region-SEAP-His protein (mouse); test: ELISA: EphA4 extracellular region-SEAP-His (1 nM) captured on anti-alkaline phosphatase antibody, antibody B titrated with human IgG 100 µg/mL, HRP anti-human IgG, OD450 as % of top concentration
T2 construct: also called mouse EphA4 extracellular region-SEAP-His 10
Protocol: (§1) Anti-alkaline phosphatase antibodies (Thermo […]) were coated onto the wells of a 96-well plate (Nunc). After incubating at 4° C. overnight, the wells were blocked at room temperature for 1 hour by 1% Block Ace (DS Pharma Biomedical). After washing 3 times with 0.05% Tween 20/PBS (Thermo […]), mouse, rat, monkey, and human EphA4 extracellular region-SEAP-His proteins (final concentration 1 nM) were seeded into the wells, and incubated at room temperature for 1 hour. After washing 3 times, human IgG solution (100 μg/mL, Mitsubishi Pharma Corporation) and antibody B (0, 0.00013, 0.00064, 0.0032, 0.016, 0.08, 0.4, 2, 10 μg/mL) were supplemented to the wells, and incubated at room temperature for 1 hour. Horseradish peroxidase-labeled donkey anti-human IgG antibody (Jackson ImmunoResearch Laboratories) was added, and incubated at room, temperature for 1 hour. After washing 3 times, TMBZ (3,3′,5,5′-tetramethylbenzidine, Sigma) solution was added to the wells, and upon confirmation of modest coloring, an equal amount of quenching solution (1 N H₂SO₄, Wako Pure Chemicals) was added to the wells, and absorbance at 450 nm was read by a microplate reader (PerkinElmer).

[3] = target: T3, human EphA4 extracellular region-SEAP-His protein (human, UniProt P54764 20-547); test: as above
T3 construct: also called human EphA4 extracellular region-SEAP-His 10; not shown: secretory alkaline phosphatase (SEAP); histidine tag
Protocol: as §1

[4] = target: T4, rat EphA4 extracellular region-SEAP-His protein (rat, UniProt D3ZZK3 20-547); test: as above
T4 construct: extracellular domain; Its preparation is not described; the limits 20-547 are stated for the Fc-His construct of rat EphA4; not shown: secretory alkaline phosphatase (SEAP); histidine tag
Protocol: as §1

[5] = target: T5, monkey EphA4 extracellular region-SEAP-His protein (monkey); test: as above
T5 construct: Its preparation is not described; not shown: secretory alkaline phosphatase (SEAP); histidine tag
Protocol: as §1

T3 sequence (P54764 20-547): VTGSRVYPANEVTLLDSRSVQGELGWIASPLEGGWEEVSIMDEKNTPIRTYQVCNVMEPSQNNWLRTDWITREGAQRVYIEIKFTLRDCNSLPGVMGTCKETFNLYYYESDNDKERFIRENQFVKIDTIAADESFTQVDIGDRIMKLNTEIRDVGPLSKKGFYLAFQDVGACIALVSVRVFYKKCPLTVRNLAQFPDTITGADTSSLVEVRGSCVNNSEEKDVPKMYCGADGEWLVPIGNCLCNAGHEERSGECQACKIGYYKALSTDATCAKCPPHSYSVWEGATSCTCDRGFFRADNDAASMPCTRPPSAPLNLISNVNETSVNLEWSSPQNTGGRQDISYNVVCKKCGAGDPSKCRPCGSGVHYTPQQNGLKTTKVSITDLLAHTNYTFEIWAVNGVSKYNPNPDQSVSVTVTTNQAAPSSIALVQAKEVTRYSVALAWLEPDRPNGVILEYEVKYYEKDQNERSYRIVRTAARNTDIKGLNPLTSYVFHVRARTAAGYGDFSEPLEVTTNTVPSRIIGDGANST
T4 sequence (D3ZZK3 entry or part of it): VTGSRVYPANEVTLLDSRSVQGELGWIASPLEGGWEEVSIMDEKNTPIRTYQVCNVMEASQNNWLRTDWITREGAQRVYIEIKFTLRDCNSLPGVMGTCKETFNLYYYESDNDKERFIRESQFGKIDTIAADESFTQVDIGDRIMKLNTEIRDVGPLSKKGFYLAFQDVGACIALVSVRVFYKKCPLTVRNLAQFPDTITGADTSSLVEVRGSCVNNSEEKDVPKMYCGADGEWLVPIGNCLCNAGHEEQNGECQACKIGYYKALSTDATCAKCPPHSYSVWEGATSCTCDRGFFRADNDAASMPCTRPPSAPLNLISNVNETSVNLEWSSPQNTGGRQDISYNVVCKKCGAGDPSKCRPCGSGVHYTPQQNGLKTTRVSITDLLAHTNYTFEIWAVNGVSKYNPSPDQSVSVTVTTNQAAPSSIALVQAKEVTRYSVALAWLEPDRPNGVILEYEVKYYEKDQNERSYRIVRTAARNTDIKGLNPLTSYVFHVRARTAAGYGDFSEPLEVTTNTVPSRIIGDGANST
T5 sequence (chain, as listed by the source): as the sequence (P54764 20-547) above, with N406S counted along it
T2 sequence (chain, as listed by the source limits assumed): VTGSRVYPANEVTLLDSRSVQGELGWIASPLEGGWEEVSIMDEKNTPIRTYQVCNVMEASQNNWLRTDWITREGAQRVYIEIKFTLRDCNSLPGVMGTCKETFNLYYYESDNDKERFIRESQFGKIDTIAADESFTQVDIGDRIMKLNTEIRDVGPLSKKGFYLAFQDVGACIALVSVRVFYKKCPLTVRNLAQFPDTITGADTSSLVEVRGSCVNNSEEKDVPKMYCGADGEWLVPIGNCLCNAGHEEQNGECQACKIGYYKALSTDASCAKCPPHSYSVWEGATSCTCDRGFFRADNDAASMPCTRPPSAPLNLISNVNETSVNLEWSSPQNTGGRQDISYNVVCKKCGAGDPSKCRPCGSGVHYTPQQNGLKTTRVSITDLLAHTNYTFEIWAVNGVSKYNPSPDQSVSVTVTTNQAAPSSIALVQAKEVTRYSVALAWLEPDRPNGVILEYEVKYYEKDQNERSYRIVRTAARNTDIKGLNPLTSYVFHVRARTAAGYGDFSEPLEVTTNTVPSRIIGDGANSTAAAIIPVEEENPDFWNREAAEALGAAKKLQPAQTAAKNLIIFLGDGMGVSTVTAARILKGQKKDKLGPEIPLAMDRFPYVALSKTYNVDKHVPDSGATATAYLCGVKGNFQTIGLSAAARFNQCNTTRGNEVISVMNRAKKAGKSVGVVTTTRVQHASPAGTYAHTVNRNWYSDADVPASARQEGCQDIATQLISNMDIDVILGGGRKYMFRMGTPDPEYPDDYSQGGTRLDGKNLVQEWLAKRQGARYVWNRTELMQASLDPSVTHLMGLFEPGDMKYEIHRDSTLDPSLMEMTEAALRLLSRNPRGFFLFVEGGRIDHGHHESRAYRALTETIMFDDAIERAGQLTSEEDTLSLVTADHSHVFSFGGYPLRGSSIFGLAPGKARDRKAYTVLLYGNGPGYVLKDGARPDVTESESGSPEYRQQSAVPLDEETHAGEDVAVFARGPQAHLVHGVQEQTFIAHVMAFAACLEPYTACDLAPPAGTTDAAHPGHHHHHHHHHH

B1: humanized anti-EphA4 monoclonal antibody (antibody B) (antibody, human IgG2, V domains shown)
VH: QVQLVESGGGVVQPGRSLRLSCAVSGFSLTRFGVHWVRQAPGKGLEWVAVIWRGGSTDYNAAFMSRLTISKDNSKNTVYLQMNSLRAEDTAVYYCAKESLFGVYYDYGYYSMDYWGQGTTVTVSS
VL: DIQMTQSPSSLSASVGDRVTITCRASQEISGYLSWLQQKPGKAPKRLIYAASTLDSGVPSRFSGSRSGTEYTLTISSLQPEDFATYYCLQYASYPLTFGGGTKVEIKR
notes: expressed in Expi293F cells; also called humanized antibody of antibody A; HK2-42 / L1-8
[1]
  binding result: no binding (tested: 10 µg/mL)
[2]
  EC50 (read off the curve): ~300 pM
[3]
  EC50 (read off the curve): ~300 pM
[4]
  EC50 (read off the curve): ~300 pM
[5]
  EC50 (read off the curve): ~300 pM
